Data on 1 substance can be found in patent publication US20140371080.

Series [1] has as its target EGFP-mOrange fusion (Aequorea victoria / Discosoma sp. (engineered)?) (UniProt P42212). As to conditions: fluorescence imaging of halted RNA clusters on Illumina GAIIx; 1xPBS, 5 mM MgCl2, 0.01% Tween-20, room temp; published 5.1 nM.
For series [2], the system named is EGFP (Aequorea victoria (engineered)?). As to conditions: CITED Shui et al. 2012; p76 states 5 and 15 nM by ITC and EMSA respectively; cited from earlier work. On the technique in general: Mobility shift assays separate free from complexed probe on a gel.

As to GFP aptamer (canonical, GFPapt), the Kd – broadly, the free concentration of one partner at which half of the binding sites on the other are occupied at equilibrium, for simple one-to-one binding – in series [1] was 6 nM; in series [2], 5.1 nM.
